# Where “and” joins values, the source holds several entries; their conditions need not be identical. Identical values can stand only once. Where no end group is shown, it is not given here.
# Experiments:
# [1] = biological target: Activating Transcription Factor (ATF) 3 (human) (UniProt P18847); assay: FRET or BRET; direct-binding FRET in 384-well plates; rhodamine-labelled design (acceptor) titrated 0 to 1 uM into 10 nM fluorescein-labelled bZIP (donor); 150 mM KCl, 50 mM potassium phosphate pH 7.4, 0.1% Tween-20, 0.1% BSA; 4 °C
# BACH2 = BACH2 (Homo sapiens, UniProt Q9BYV9); assay: as above
# JUN = JUN (Homo sapiens, UniProt P05412); assay: FRET or BRET; direct-binding FRET in 384-well plates; rhodamine-labelled design (acceptor) titrated 0 to 1 uM into 10 nM fluorescein-labelled bZIP (donor); 150 mM KCl, 50 mM potassium phosphate pH 7.4, 0.1% Tween-20, 0.1% BSA; 23 °C
# NFE2L1 = NFE2L1 (Homo sapiens, UniProt Q14494); assay: as above
# BACH1 = BACH1 (Homo sapiens, UniProt O14867); assay: FRET or BRET; direct-binding FRET in 384-well plates; rhodamine-labelled design (acceptor) titrated 0 to 1 uM into 10 nM fluorescein-labelled bZIP (donor); 150 mM KCl, 50 mM potassium phosphate pH 7.4, 0.1% Tween-20, 0.1% BSA; 4 °C
# FOS [2] = biological target: T1, FOS (Homo sapiens, UniProt P01100); assay: as above
# MAF = MAF (Homo sapiens, UniProt O75444); assay: as above
# MAFB = MAFB (Homo sapiens, UniProt Q9Y5Q3); assay: as above
# MAFF (human) = MAFF (human) (UniProt Q9ULX9); assay: as above
# MAFG [3] = biological target: T2, MAFG (Homo sapiens, UniProt O15525); assay: as above
# NFE2L3 (human) [4] = biological target: NFE2L3 (human) (UniProt Q9Y4A8); assay: as above
# NFIL3 (human) [5] = biological target: NFIL3 (human) (UniProt Q16649); assay: as above
# ATF6B = ATF6B (Homo sapiens, UniProt Q99941); assay: FRET or BRET; direct-binding FRET in 384-well plates; rhodamine-labelled design (acceptor) titrated 0 to 1 uM into 10 nM fluorescein-labelled bZIP (donor); 150 mM KCl, 50 mM potassium phosphate pH 7.4, 0.1% Tween-20, 0.1% BSA; 23 °C
# FOS [6] = biological target: T1, FOS; assay: as above
# MAFG [7] = biological target: T2, MAFG; assay: as above
# NFE2L3 (human) [8] = biological target: NFE2L3 (human) (UniProt Q9Y4A8); assay: as above
# NFIL3 (human) [9] = biological target: NFIL3 (human) (UniProt Q16649); assay: as above
# NFIL3 (human), sequence (Q16649 whole entry): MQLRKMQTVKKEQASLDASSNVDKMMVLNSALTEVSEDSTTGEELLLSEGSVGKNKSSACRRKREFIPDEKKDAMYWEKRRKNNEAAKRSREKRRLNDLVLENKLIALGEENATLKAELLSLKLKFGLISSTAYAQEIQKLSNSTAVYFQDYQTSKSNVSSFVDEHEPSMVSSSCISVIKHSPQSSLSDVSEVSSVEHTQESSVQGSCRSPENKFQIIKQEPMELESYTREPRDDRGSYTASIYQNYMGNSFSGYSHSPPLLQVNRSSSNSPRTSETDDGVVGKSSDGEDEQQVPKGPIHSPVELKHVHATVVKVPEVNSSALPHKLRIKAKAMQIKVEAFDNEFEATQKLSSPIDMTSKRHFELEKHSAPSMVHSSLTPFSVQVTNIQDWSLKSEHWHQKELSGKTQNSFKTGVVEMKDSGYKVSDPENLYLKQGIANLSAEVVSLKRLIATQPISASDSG
# T1 sequence (P01100 whole entry): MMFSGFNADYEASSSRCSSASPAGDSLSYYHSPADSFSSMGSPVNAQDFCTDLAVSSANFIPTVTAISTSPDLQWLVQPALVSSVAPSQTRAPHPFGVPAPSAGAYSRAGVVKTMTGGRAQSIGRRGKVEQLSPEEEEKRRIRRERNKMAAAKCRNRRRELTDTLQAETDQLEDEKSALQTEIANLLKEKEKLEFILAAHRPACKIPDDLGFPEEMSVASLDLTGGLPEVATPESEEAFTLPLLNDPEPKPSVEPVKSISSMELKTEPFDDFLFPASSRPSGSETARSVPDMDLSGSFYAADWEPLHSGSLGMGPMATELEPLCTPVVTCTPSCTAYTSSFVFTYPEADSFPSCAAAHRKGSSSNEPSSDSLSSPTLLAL
# T2 sequence (O15525 whole entry): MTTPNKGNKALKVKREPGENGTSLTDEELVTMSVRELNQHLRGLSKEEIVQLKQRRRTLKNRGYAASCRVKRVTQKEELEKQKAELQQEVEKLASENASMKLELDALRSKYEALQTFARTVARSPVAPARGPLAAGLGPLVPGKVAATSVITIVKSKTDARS
# NFE2L3 (human), sequence (Q9Y4A8 whole entry): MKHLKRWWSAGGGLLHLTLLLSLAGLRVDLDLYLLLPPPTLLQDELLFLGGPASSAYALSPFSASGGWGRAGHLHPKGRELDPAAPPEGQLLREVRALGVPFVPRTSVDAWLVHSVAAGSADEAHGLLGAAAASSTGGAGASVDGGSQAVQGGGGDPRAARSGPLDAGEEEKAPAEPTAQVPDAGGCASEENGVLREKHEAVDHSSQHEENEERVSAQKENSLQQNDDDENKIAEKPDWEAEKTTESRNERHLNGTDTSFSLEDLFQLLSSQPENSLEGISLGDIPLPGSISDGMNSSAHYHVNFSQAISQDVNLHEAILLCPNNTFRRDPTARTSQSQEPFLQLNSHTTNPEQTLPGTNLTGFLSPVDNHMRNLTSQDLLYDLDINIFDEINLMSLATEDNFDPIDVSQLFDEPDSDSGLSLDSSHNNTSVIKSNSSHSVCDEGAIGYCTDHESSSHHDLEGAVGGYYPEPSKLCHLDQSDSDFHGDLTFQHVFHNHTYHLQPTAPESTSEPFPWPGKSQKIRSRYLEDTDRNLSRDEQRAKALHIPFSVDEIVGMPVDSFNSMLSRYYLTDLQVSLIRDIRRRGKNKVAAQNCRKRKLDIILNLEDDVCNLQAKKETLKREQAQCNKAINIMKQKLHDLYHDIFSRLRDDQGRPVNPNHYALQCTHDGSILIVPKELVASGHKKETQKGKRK
# BACH1, sequence (O14867 whole entry): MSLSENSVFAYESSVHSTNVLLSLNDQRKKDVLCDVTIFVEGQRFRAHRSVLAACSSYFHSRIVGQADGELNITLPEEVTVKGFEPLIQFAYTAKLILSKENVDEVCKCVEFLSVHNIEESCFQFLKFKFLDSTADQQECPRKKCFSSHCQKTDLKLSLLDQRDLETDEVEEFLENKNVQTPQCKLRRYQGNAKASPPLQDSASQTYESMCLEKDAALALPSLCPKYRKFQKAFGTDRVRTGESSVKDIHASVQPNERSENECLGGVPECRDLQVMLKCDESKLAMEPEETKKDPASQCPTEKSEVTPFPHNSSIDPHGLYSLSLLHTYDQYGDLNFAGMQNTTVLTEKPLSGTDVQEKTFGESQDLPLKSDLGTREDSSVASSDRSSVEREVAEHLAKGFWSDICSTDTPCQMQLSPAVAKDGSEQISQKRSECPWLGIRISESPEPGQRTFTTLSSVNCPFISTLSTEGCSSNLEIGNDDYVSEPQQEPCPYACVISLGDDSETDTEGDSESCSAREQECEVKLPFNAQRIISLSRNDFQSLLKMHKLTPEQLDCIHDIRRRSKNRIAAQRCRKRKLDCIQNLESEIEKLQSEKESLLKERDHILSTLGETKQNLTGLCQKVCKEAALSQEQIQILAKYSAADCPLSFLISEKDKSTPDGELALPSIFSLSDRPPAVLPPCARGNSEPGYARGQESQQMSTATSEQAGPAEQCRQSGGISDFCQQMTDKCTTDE
# ATF6B, sequence (Q99941 whole entry): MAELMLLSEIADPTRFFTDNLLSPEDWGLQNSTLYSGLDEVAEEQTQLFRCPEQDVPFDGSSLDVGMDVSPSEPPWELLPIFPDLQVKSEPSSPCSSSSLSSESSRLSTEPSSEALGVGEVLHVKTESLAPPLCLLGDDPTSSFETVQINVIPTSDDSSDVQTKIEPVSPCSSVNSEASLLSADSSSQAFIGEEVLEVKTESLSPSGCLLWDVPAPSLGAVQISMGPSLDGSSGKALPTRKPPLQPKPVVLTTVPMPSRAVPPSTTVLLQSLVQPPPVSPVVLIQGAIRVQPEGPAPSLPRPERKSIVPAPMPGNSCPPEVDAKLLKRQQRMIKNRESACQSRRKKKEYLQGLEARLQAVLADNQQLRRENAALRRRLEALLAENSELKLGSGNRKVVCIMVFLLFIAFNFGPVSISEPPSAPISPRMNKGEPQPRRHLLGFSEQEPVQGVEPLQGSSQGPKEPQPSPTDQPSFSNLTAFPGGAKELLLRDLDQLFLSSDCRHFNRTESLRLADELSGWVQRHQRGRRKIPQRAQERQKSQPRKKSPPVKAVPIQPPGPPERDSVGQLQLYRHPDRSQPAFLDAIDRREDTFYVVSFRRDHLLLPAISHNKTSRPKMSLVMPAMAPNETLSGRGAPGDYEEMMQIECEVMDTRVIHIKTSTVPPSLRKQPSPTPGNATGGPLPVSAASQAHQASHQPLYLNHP
# Activating Transcription Factor (ATF) 3 (human), sequence (P18847 whole entry): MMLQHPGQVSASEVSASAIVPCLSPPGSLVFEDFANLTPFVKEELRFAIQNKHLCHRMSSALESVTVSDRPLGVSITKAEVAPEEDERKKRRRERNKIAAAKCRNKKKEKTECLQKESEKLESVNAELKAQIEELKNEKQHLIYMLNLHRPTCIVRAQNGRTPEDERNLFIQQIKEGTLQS
# MAFB, sequence (Q9Y5Q3 whole entry): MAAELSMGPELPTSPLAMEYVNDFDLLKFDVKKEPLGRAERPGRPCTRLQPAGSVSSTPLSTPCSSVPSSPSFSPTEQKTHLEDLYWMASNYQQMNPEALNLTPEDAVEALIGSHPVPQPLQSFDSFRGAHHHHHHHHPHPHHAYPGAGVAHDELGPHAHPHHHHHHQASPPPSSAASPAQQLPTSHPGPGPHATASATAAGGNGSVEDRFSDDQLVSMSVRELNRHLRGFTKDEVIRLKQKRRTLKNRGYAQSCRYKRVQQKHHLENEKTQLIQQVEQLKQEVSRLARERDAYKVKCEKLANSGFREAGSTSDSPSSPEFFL
# MAF, sequence (O75444 whole entry): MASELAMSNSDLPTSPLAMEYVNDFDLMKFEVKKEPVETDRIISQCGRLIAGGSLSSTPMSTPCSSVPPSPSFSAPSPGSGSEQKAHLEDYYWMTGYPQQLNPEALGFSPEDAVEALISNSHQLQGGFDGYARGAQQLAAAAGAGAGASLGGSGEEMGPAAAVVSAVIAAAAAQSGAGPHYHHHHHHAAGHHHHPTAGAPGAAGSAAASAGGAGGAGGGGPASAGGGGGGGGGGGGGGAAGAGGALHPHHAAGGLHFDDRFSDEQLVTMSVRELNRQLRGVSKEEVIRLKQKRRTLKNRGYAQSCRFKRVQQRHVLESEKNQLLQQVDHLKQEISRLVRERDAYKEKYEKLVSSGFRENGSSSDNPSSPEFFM
# JUN, sequence (P05412 whole entry): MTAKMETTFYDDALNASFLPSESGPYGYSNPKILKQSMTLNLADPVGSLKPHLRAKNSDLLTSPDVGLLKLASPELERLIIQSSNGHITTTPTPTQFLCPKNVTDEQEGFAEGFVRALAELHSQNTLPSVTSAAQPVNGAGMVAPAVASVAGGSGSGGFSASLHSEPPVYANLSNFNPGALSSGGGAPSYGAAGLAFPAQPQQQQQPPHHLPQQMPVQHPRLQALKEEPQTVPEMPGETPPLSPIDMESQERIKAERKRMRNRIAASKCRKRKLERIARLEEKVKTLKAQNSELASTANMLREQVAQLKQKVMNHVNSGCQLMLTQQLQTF
# MAFF (human), sequence (Q9ULX9 whole entry): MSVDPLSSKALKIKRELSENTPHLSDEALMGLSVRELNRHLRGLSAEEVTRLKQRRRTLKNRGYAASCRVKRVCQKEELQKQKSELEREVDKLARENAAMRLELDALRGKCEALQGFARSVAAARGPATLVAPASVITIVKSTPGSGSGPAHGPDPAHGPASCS
Binder,Kd [1] [nM],Kd (BACH2) [nM],Kd (JUN) [nM],Kd (NFE2L1) [nM],Kd (BACH1) [nM],Kd (FOS [2]) [nM],Kd (MAF) [nM],Kd (MAFB) [nM],Kd (MAFF (human)) [nM],Kd (MAFG [3]) [nM],Kd (NFE2L3 (human) [4]) [nM],Kd (NFIL3 (human) [5]),Kd (ATF6B) [nM],Kd (FOS [6]) [nM],Kd (MAFG [7]) [nM],Kd (NFE2L3 (human) [8]) [nM],Kd (NFIL3 (human) [9]) [nM]
"ATF5-d1 labeled at the C-terminus (designed binder, not fully specified) GESKEYKKGSGSKRIAYLRQRIAELRNENHVLESRIQRMEKEKDALQQDRDHLEYELGC(Rhodamine Red C2‑maleimide)",> 5000,> 5000,> 5000,> 5000,,,,,,,,,,,,,
"ATF4-d1 labeled at the C-terminus (designed binder, also: C59 label by assay: Rhodamine Red C2-maleimide or fluorescein-5-maleimide, solubility linker after the His6 tag; added to the C-terminus for labeling; one molecule for the rhodamine- and the fluorescein-labelled form; the assay tells which label stood there; also called ATF4-d1-Rhodamine; ATF4-d1-FITC; source: E. coli RP3098, purified (Ni-NTA under denaturing conditions, reverse-phase HPLC)) GESKEYKKGSGSNQIKTLRTRLSKLRKDNLQLEKDIANLERKAKDLRAEKEQLEYELGC",,,,,> 5000,1000,> 5000,> 5000,> 5000,1000,1000,22.8 nM and 23.3 nM and 22.6 nM,1000,1000,1000,1000,> 5000

# Source: publication PMC4335062, “Data-Driven Prediction and Design of bZIP Coiled-Coil Interactions” (PLoS Computational Biology, 2015)
